# Target: pooled human IgG (human)
# Experiment: cell-based or functional assay
# Also: test concentration or dose not given here.
Binder,Enzyme Activity Endpoint Assay (purified): Fab′2,Enzyme Activity Endpoint Assay (purified): Fc,Enzyme Activity Endpoint Assay (purified): IgG,Enzyme Activity Endpoint Assay (purified): scIgG
PRT-214 (enzyme) MEVVEVWPYGQNPNGKTEILSQTEDSESLQRLRDIEDFQAEKKKEGVVYTKWLDGVDVDDHDFRKITDGDIEYYATPLLNGRGFYDINKDFNRDSDKCAAAVAANMFHYWLDRNRDNVDRFLKQNPEKHGIIELPDGQLKLSDFLNTYESDYGYRDKSKLFDFISNNFNGPVWTDKLLDNYINGYAYNYKYGRTIEDPTKNTSKINFFKEVFDEKLLTNNHSIRNYNEFSELLREALYTGKAIGLSYGPAGLRHSLGHIISVWGADLDEDGNVVAIYVTDSDDKKLTIGDERVGLKRYKVSSDDENRARLTAYEEKDNTGGEIRGLYTLDTGKQAWADYFDKTEQTGTDQAEQLEHHHHHH,467 ng/µL,27 ng/µL,1650 ng/µL,0 ng/µL
PRT-208 (enzyme) MEVVEVWPYGQNPNGKTEILSQTEDSESLQRLRDIEDFQAEKKKENVVYTKWLDGVTVKDHDFRKIVDGNIAYYATPLLNGRGFYDINKDFNRDSDKCAAAVAANMFHYWLDINRDNVDRFLRQNPEKHGIIELPDGQLKLSDFLNTYESDDGYRDKSKLFDFISNNFNGPVWTDKLLDNYINGYGYNYKYGRTIEDPTKNTSKINFFKEVFNEKILTDNHSIRDQNEFSDLLSEALYTGKAIGLSYGPAGLRHSLGHIISVWGADLDADGNVVAIYVTDSDDKKLTIGDERVGLKRYKISYDDEGRARLTAYEEKDNTGGQIRGLWTLDTGKQAWADYFDKTEQTGTDQAEQLEHHHHHH,0 ng/µL,153 ng/µL,1700 ng/µL,113 ng/µL
PRT-216 (enzyme) MEVVEVWPYGQNPNGKTEILSQTEDSESLQRLRDIEDFQAEKKKENVVYTKWLDGVDVDDHDFRKIVDGNTEYYATPLLNGRGWYDINKDFNRDSDKCAAAVAANMFHYWLDQNRDNIDRFLRQSPEKHGIIELPDGQLKLSDFLNTYESDDGYRDKSKLFDFISNNFNGPVWTDKLLDNYINGYGYNYKYGRTIEDPTKNNSKINFFKKVFNGKILTDNHSIRNYNTFSDLLSEALYTGKAIGLSYGPAGLRHSLGHIISVWGADLDADGNVVAIYVTDSDDKKLTIGDERVGLKRYKISYDDENRARLTAYEENDNTGGQIRGLETLDTGKQAWADYFDKTEQTGTDQAEQLEHHHHHH,0 ng/µL,0 ng/µL,1660 ng/µL,0 ng/µL
PRT-209 (enzyme) MEVVEVWPYGQNPNGKTEILSQTEDSESLQRLRDIEDFQAEKKKQGVVYTKWLDGVDVDDHDFRKIVDGNIAYYATPLLNGKGFYDINKDFNRDSDKCAAAVAANMFHYWLDQNRDNVDRFLRQNPEKHGIIELPDGQLKLSDFLNTYESDNGYRDKSKLFDFISNNFNGPVWTDKLLDNYINGYAYNYKYGRTIEDPTKNTSKINFFKDVFNEKILTNIHSIRNYNTFSNLLSEALYTGKAIGLSYGPAGLRHSLGHIISVWGADLDEDGNVVAIYVTDSDDKKLTIGDERVGLKRYKISTDDEGRARLTAYEENDNTGGEIRGLYTLDTGKQAWADYFDKTEQTGTDQAEQLEHHHHHH,0 ng/µL,124 ng/µL,1670 ng/µL,71 ng/µL
PRT-211 (enzyme) MEVVEVWPYGQNPNGKTEILSQTEDSESLQRLRDIEDFQAEKKKQGVVYTKWLDGVDVDDHDFRKIVDGNIAYYATPLLNGKGFYDINKDFNRDSDKCAAAVAANMFHYWLDQNRDNVDRFLRQNPEKHGIIELPDGQLKLSDFLNTYESDNGYRDKSKLFDFISNNFNGPVWTDKLLDNYINGYAYNYKYGRTIEDPTKNTSKINFFKDVFNEKILTNIHSIRNYNTFSNLLSEALYTGKAIGLSYGPAGLRHSLGHIISVWGADLDEDGNVVAIYVTDSDDKKLTIGDERVGLKRYKISTDDEGRARLTAYEENDNTGGEIRGLWTLDTGKQAWADYFDKTEQTGTDQAEQLEHHHHHH,0 ng/µL,68 ng/µL,2190 ng/µL,0 ng/µL
PRT-210 (enzyme) MEVVEVWPYGQNPNGKTEILSQTEDSESLQRLRDIEDFQAEKKKQNVVYTKWLDGVTVDDHDFRKITDGNTAYYATPLLNGRGFYDINKDFNRDSDKCAAAVAANMFHYWLDQNRDNVDRFLKQNPEKHGIIELPDGQLKLSDFLNTYESDDGYRDKSKLFDFISNNFNGPVWTDKLLDNYINGYAYNYKYGRTIEDPTKNTSKINFFKEVFNEKLLTNNHSIRNQNEFSDLLSEALYTGKAIGLSYGPAGLRHSLGHIISVWGADFDADGNVVAIYVTDSDDKKLTIGDERVGLKRYKISSDDEGRARLTAYTEKHNTGGQIRGLYTLDTGKQEWADYFDKTEQTGTDQAEQLEHHHHHH,0 ng/µL,87 ng/µL,1780 ng/µL,25 ng/µL
PRT-217 (enzyme) MEVVEVWPYGQNPNGKTEILSQTEDSESLQRLRDIEDFQAEKKKQNVVYTKWLDGVTVDDSDFRKIKDGNTEYYATPLLNGRGFYDINKDFNRDSDKCAAAVAANMFHYWLDRNRDNVDRFLKQNPEKHGIIELPDGQLKLSDFLNTYESDNNYRDKSKLFDFISKNFNGPVWTNKLLDNYINGYGYNYKYGRTIEDPTKNTSKINFFKKVFNEKILTNVHQIFNYNEFSTLLSEALYTGKAIGLSYGPGGLRHSLGHIISVWGADLDADGNVVAIYVTDSDDKKLTIGDERVGLKRYKISTDDEGRARLTAYTETDNTGGQVRGIYTLDTGKQAWADYFDKTEQTGTDQAEQLEHHHHHH,0 ng/µL,86 ng/µL,1580 ng/µL,41 ng/µL
PRT-213 (enzyme) MEVVEVWPYGQNPNGKTEILSQTEDSESLQRLRDIEDFQAEKKKEGVVYTKWLDGVTVKDHDFRKIVDGNIEYYATPLLNGRGWYDINKDFNRDSDKCAAAVAANMFHYWLDRNRDNVDRFLKQNPEKHGIIELPDGQLKLSDFLNTYESDNGYRDKSKLFDFISKNFNGPVWTDKLLDNYINGYGYNYKYGRTIEDPTKNTSKINFFKKVFNEKILTDIHSIRNQNEFSDLLSEALYTGKAIGLSYGPAGLRHSLGHIISVWGADFDEDGNVVAIYVTDSDDKKLTIGDERVGLKRYKVSTDDEGRARLTAYTETDNTGGQVRGLYTLDTGTQAWADYFDKTEQTGTDQAEQLEHHHHHH,0 ng/µL,244 ng/µL,1290 ng/µL,301 ng/µL
PRT-215 (enzyme) MEVVEVWPYGQNPNGKTEILSQTEDSESLQRLRDIEDFQAEKKKEGVVYTKWLDGVTVKDHDFRKIVDGNIEYYATPLLNGRGWYDINKDFNRDSDKCAAAVAANMFHYWLDRNRDNVDRFLKQNPEKHGIIELPDGQLKLSDFLNTYESDNGYRDKSKLFDFISKNFNGPVWTDKLLDNYINGYGYNYKYGRTIEDPTKNTSKINFFKKVFNEKILTDIHSIRNQNEFSDLLSEALYTGKAIGLSYGPAGLRHSLGHIISVWGADFDEDGNVVAIYVTDSDDKKLTIGDERVGLKRYKVSTDDEGRARLTAYTETDNTGGQVRGLWTLDTGTQAWADYFDKTEQTGTDQAEQLEHHHHHH,73 ng/µL,310 ng/µL,708 ng/µL,309 ng/µL
PRT-218 (enzyme) MEVVEVWPYGQNPNGKTEILSQTEDSESLQRLRDIEDFQAEKKKQGVVYTKWLDGVNVDDHEFRKITDGNTEYYATPLLNGRGYYDINKDFNRDSDKCAAAVAANMFHYWLDRNRDNVDRFLRQNPDKHGIIELPDGQLKLSDFLNTYESDHDYRDKSKLFDFISNNFNGPVWTNKLLDNYINGYGYNYKYGRTIEDPTKNTSKINFFKEVFNGKLLTDNHSIRNKNEFSSKLSEALYTGKAIGLSYGPAGLRHSLGHIISVWGADLDEDGNVVAIYVTDSDDKKLTIGDERVGLKRYKVSYDDEGRARLTAYEETDNTGGEIRGLYTLDTGKQYWADYFDKTEQTGTDQAEQLEHHHHHH,0 ng/µL,39 ng/µL,1780 ng/µL,0 ng/µL
PRT-207 (enzyme) MEVVEVWPYGQNPNGKTEILSQTEDSESLQRLRDIEDFQAEKKKEGVVYTKWLDGVDVDDHDFRKIVDGNIAYYATPLLNGRGFYDINKDFNRDSDKCAAAVAANMFHYWLDRNRDNVDRFLKQNPEKHGIIELPDGQLKLSDFLNTYESDNGYRDKSKLFDFISNNFNGPVWTDKLLDNYINGYAYNYKYGRTIEDPTKNTSKINFFKEVFNEKILTNNHSIRNYNTFSDLLSEALYTGKAIGLSYGPAGLRHSLGHIISVWGADLDADGNVVAIYVTDSDDKKLTIGDERVGLKRYKVSSDDENRLRLTAYEETHNTGGQIRGIWTLDTGKQAWADYFDKTEQTGTDQAEQLEHHHHHH,0 ng/µL,249 ng/µL,1290 ng/µL,287 ng/µL
PRT-212 (enzyme) MEVVEVWPYGQNPNGKTEILSQTEDSESLQRLRDIEDFQAEKKKEGVVYTKWLDGVDVKDHDFRKIVDGNIEYYATPLLNGRGFYDINKDFNQDSDKCAAAVAANMFHYWLDRNRDNVDRFLSQNPEKHGIIELPDGQLKLSDFLNTYESDDGYRDKSKLFDLISNNFNGPVWTDKLLDNYINGYAYNYKYGRTIEDPTKNTSKINFFKEVFNEKILTNIHSIRNQNEFSDKLSEALYTGKAIGLSYGPAGLRHSLGHIISVWGADLDEDGNVVAIYVTDSDDKKLTIGDERVGLKRYKVSTDDEGRLRLTAYEETDNTGGEIRGIWTLDTGKQAWADYFDKTEQTGTDQAEQLEHHHHHH,13 ng/µL,435 ng/µL,1270 ng/µL,599 ng/µL
